Results on three molecules are retold here after patent US8785600B2, “Anti-GCC antibody molecules and related compositions and methods” (Millennium Pharmaceuticals, Inc., priority 2009, dated 2014).

Sequences and labels used below:
B1: 3G1: Mouse anti-GCC hybridoma mAb, IgG1,k; VH SEQ ID NO:2, VL SEQ ID NO:4 (antibody, V domains shown)
VH: QVQLKESGPGLVAPSQSLSITCTVSGFSLSRNAISWVRQPPGKGLEWLGVIWTGGGTNYNSALKSRLSIRKENSKSQVFLKMNSLQTEDTARYFCARSGYDGFDYWGQGTLVTVSA
VL: QIVLTQSPAIMSASPGEKVTMTCSASSSVNYMHWYQQKSGTSPKRWIYDTSKLASGVPARFSGSGSGTSYSLTITSMEAEDAATYYCQQWSGNPYTFGGGTKLEIK
B2: 8F1: Mouse anti-GCC hybridoma mAb, IgG1,k; VH SEQ ID NO:10, VL SEQ ID NO:12 (antibody, V domains shown)
VH: QVQLQQPGAELVKPGASVQMSCKASGYIFTGYWMYWVKQRPGQGLEWIGRIHPSDSNTNYNQKFKGKATLTVDKSSSTAYMQLSSLTSEDSAVYYCTHALAYWGQGTLVTVS
VL: DVVLTQTPLTLSITIGQPASISCKSSQSLLYSNGKTYLSWLLQRPGQSPKRLIYLVSQLDSGVPDRFTGSGSGTDFTLKISRVEAEDLGVYYCVQGTHLFTFGSGTKLEIK
B3: Abx-198: Human anti-GCC SLAM mAb, IgG1,k; VH SEQ ID NO:42, VL SEQ ID NO:44 (antibody, V domains shown)
VH: EVQLLESGGGLVQPGGSLRLSCAASGFTFSSYAMSWVRQAPGKGLDWVSDISGSGGSTYYADSVKGRFTISRDNSKNTLYLQMHSLSAEDTAIYYCAKRRWQGYFDLWGRGTLVTVSS
VL: EIVLTQSPGTLSLSPGERATLSCRARQRVDSRYLAWYQQKPGQAPRLLIYGASSRATGIPDRFSGSGSGTDFTLTISRLEPEDFAVYYCQQYGSSPLTFGGGTKVEIK

In the experiment the test system is GCC 20-mer peptides (aa 1-440). Description: Epitope mapping by peptide array. Conditions: 20-mer peptides with 15 aa overlap, GCC aa 1-440. It is filed as binding, human. From the text: Multiple strategies were initiated to identify epitopes. Peptide array. 20-mer peptides, with 15 aa overlap were generated, covering the extracellular domain (ECD) into the transmembrane domain of GCC (aa 1-440). Peptides were synthesized and provided as arrays, immobilized on glass slides. Arrays were hybridized with each of the anti-GCC antibodies to determine if linear peptides were sufficient for binding. […] The sequence, […] (SEQ ID NO:225) is spanned by these peptides. A region of overlap among the peptides is […] (SEQ ID NO:314). […] The sequence, […] (SEQ ID NO:226), and the sequence […] (SEQ ID NO:315) overlaps the two peptides.
On to B1, for which the “Peptides bound in peptide array” value was “peptides 55, 56 and 57”. Under B2 stands “peptides 55, 56 and 57”; under B3, “peptides 55 and 56”.
